Source: article PMC6135645

Biological target: Light-Harvesting Complex II (LHCII), trimeric (spinach (endogenous in spinach leaves))
Test: native gel or EMSA; non-denaturing Clear Native PAGE (NativePAGE Novex 4-16% Bis-Tris), Coomassie staining; LHCII in α-DDM after sucrose gradient and size-exclusion chromatography

## Light-Harvesting Complex II (LHCII), trimeric
  stoichiometry N: 3
